What was measured:
[1] = target: 1G4 TCR carrying βA291 (TCRαβ with HA-tagged β Y291A); assay: co-IP
[2] = target: QM-α TCR (1G4 variant with mutations in αCDR2, βCDR2 and βCDR3; TCRαβ with HA-tagged β); assay: pull-down
[3] = target: 1G4 TCR, wild type (TCRαβ with HA-tagged β); assay: co-IP

Substance: CD3ε, endogenous in J76 Jurkat cells (from UniProt P07766 23-207) (natural protein)
- ε/βT ratio against 1G4-WT (ratio, 1G4-WT = 1) [1]: 0.5

Substance: CD3ζ (ζζ dimer), endogenous in J76 Jurkat cells (from UniProt P20963-1 22-164) (natural protein)
- ζ/β2 ratio against 1G4-WT (ratio, 1G4-WT = 1) [1]: 0.2
- reduction of ζ/β2 ratio, (9V-A2)4-His-bound against unliganded QM-α [2]: 40%

Substance: CD3ζ carrying ζA41 (I41A), expressed in J76-1G4WT-ζKO (from UniProt P20963-1 22-164) (natural protein)
- ζ/β2 ratio against ζWT (ratio, ζWT = 1) [3]: 0.25

Substance: CD3δ, endogenous in J76 Jurkat cells (from UniProt P04234 22-171) (natural protein)
- reduction of recovery (δ/βT) against 1G4-WT [1]: 10%

Substance: CD3ζ carrying ζA38 (I38A), expressed in J76-1G4WT-ζKO (from UniProt P20963-1 22-164) (natural protein)
- ζ/β2 ratio against ζWT (ratio, ζWT = 1) [3]: 0.05

Substance: CD3γ, endogenous in J76 Jurkat cells (from UniProt P09693 23-182) (natural protein)
- reduction of recovery (γ/βT) against 1G4-WT [1]: 40%

From doi:10.1101/2020.12.02.407882
